From patent US20190218553

Molecular target: von Willebrand factor (VWF) (Homo sapiens) (UniProt P04275)
Assay: filter
Conditions: mAmCmGmAmAmCmUmGfCfCfCmUmC(6GLY)mGmAfCrGfCmAmCmAmGmAmCmGfUidT (6GLY = hexaethylene glycol linker); Bmax 60%; 2 mM CaCl2, 37 C

ACGAACUGCCCUCGACGCACAGACGU [DTRI-009] showed a Kd of 0.011 µM.
